In the supplement of paper PMC10567573:
± gives the standard deviation.

Assay: protein stability index of a GFP-peptide fusion (GPS, HEK-293T) (PSI 1-6); higher = more stable
Details: c terminus: a fixed tail appended
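Also: 24-mer peptide tiles fused after GFP, lentivirally expressed, FACS-sorted into six equal bins by GFP/DsRed ratio, decoded by Illumina sequencing, PSI is the read-weighted mean bin number.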

Sequence	protein stability index (treatment: DMSO)	protein stability index (treatment: MLN4924 1 uM, 8 h)
DFEHRPKAPVVECSITGDSSRVIA [WDR88]	4.36 ± 0.26	4.49 ± 0.17
DGEILFSLLQKVSPVAHKHLSRQK [TBC1D10A]	2.36 ± 0.11	2.48 ± 0.37
DGGSSLASGSTQRQPPPPAPQHPQ [FBXO28]	5.22 ± 0.34	5.18 ± 0.35
DHMREAGDVCYADVYRDGTGVVEF [SRSF1]	3.15 ± 0.28	3.18 ± 0.23
DHVHILDTETFTWSQPITTGKAPS [KLHDC2]	3.82 ± 0.3	3.84 ± 0.4
DIKRLLVNFMYLQSLLQPKSSSVD [SMG5]	2.97 ± 0.54	3.08 ± 0.51
DITDDCICDLARSIDFNKDGHIDI [PPEF2]	3.87 ± 0.19	4.05 ± 0.39
DLKDDGNMMKVLRGHQNWVYSCAF [WSB1]	2.3 ± 0.29	1.87 ± 0.22
DLKPENILFVNSEFETLYNEHKSC [CLK3]	3.38 ± 0.37	3.48 ± 0.26
DLQNLLGFTPEELHAILGVQPDTE [ETS2]	3.25 ± 0.21	3.45 ± 0.29
DLVLDEEGARAAGLGELGAALLQL [ESRRA]	3.94 ± 0.19	4.05 ± 0.17
DMELHRMSRMQSKEYPVVPRSTVR [TBX5]	4.35 ± 0.07	4.33 ± 0.15
DNAVKNHWNSTIKRKVDTGGFLSE [MYBL2]	3.87 ± 0.2	3.71 ± 0.14
DNDHKEAVGKMGFVVTMLKLIQKK [ZER1]	2.21 ± 0.37	2.07 ± 0.34
DPGHCFAESRELPVRCAGDWLPRG [ALG2]	3.1 ± 0.38	3.05 ± 0.25
DPNSQVGACIVNSENKIVGIGYNG [DCTD]	4.56 ± 0.15	4.56 ± 0.48
DQLYRRKKDNHALVRETDELRRNH [ELOA2]	4.53 ± 0.42	4.48 ± 0.43
DRLASNVAKRKSSMPQKFLGDKGL [IKZF1]	3.95 ± 0.11	4.05 ± 0.17

Sequence	protein stability index (treatment: DMSO)	protein stability index (treatment: MLN4924 1 uM, 8 h)
DSAVENLLLLSKAKLVPSEREASP [IKZF1]	4.15 ± 0.23	4.59 ± 0.14
DSLAKEIQYLKDLIEEVRKARGKK [ATF4]	2.25 ± 0.31	2.14 ± 0.44
DSLGGSQEMVQRPQPHRNRAGLDL [TRAF3IP2]	4.87 ± 0.23	4.58 ± 0.41
DSMEGKRSPYAGLQLGAAKKPPVT [TRIM29]	4.58 ± 0.35	4.52 ± 0.18
DSSTSPKGKQPTSAENSVAKKEDK [NANOGP8]	5.57 ± 0.36	5.58 ± 0.19
DTNLGRLEDGQTPLHLSALRDDVL [ASB7]	4.59 ± 0.1	4.56 ± 0.21
DTQVNPVGSVSVDCGPSRADRCSP [FBXO34]	5.09 ± 0.32	5.15 ± 0.28
DVCSFPNALVTKLLLDCGAEVNAV [FEM1B]	2.48 ± 0.83	2.44 ± 0.48
DVDITLSSEAFHNYMNAAMVHINR [RTN3]	2.18 ± 0.087	2.32 ± 0.25
DVGRYIDHYAAIKKAWDDLKKYLE [FBXO3]	2.31 ± 0.34	2.97 ± 0.52
DVLLTLKHTVKEHECKLTQEILEL [IQUB]	2.12 ± 0.2	1.96 ± 0.47
DWYQKQTPTSPECDYSQYFKTIEE [KRT15]	3.86 ± 0.23	3.97 ± 0.26
EALLKLLAGLTRPDVRPPLGRGLV [SEPHS2]	2.22 ± 0.45	2.32 ± 0.24
EALRALQEGLWLDRGTRVVFIDFS [PKD2L1]	2.3 ± 0.72	2.34 ± 0.35
EAYTKICDPGLTAFEPEALGNLVE [CAMK2D]	3.91 ± 0.25	3.62 ± 0.27
ECDNMLMLLSVSQSMSEEEREKVT [SEPHS2]	4.58 ± 0.12	4.58 ± 0.24
ECKQLSESQVKSLCEKAKEILTKE [PPP2CA]	4.64 ± 0.2	4.82 ± 0.18
ECLKKFNARRKLKGAILTTMLATR [CAMK2B]	2.98 ± 0.32	2.94 ± 0.29
